Source: the DeepSol protein solubility set

Experiment: soluble on expression in E. coli; label from the status in PepcDB or PDB records

| Sequence | soluble on expression in E. coli |
| --- | --- |
| MFHAAFMEERVFSDRGSMRNACSSIEYDGCRQGQSGPLLEEKEVKRKLFGALALVAMLAAPALAEAATRGFATANVNMRSGPSTAYPAVVVIPVGAPLTVHGCLSDTPWCDVSFVNGRGWVAGRYIQTTFRQNRVYVEPRYYRDLGVPVITFEAGRYWDRYYRDRDFYRERDRWRRPPPSGGYWNAPPPSAGWDRPRPRDDWRDGRRDDGRRDEWRDPRQGGPNDGRWERRYGDWNQGDRNQDRPRRDDDRRRWEDENRDRNRDRDSNRDGNRDRPQNQYDGQRGQLEGQPRPPAPAPDAPLQGCIIGSPGCAQRLEHHHHHH | soluble |
| MDAFKRNLEKLAELAIRVGLNLEKGQEVIATAPIEAVDFVRLLAEKAYREGASLFTVIYGDQELARKRLALAPEEGLDKAPAWLYEGMARAFREGAARLAVSGSDPKALEGLPPEKVGRAQKANARAYKPALEAITEFVTNWTIVPFAHPGWARAVFPGLPEEEAVRRLWEAIFQATRADQEDPIAAWEAHNRALHEKVAYLNARRFHALHFKGPGTDLVVGLAEGHLWQGGATATKGGRLCNPNLPTEEVFTAPHRERVEGVVRASRPLALGGTLVEGIFARFERGFAVEVRAEKGEEVLRRLLDTDEGARRLGEVALVPADNPIAKTGLVFFDTLFDENAASHIAFGQAYQENLEGRPSGEAFRKRGGNESLVHVDWMIGSEEMDVDGLYEDGTRTPLMRRGRWVV | soluble |
| SYLYTLYSDVRTEVAKMERVAWLEVVGKFETEKLTPNSLYEVVFVVKLIDSAKGWDFRVNFKLVLPTGETKERRENVNLLERNKWVEIPAGEFMISPEHLSGKIEFSMLEVKSDQWKSGLIVKGVAIRPKN | soluble |
| MWDLETDRVLNEIKTRNARKVLFQAPEGLKRAVEKEIEFLKTKIDAELMIWGETCFGACDLCDEEVTILGIDLIIHYGHEELSYVHSEIPVVFVHAYFKENEYFLKDVENILEKMENPTVTTTIQFKKALSKFNPVVILGCRAPVDNAENILFVGTGRFHPLMMAYKLKKTVKIYNPITREISEISDQEIKKLIKLRIGRVSKLLLNPPKKIGVVLSTKKGQCRLKSFENVIELLKKNNIEYIPIILNNLSQSYLFYKVDAYVICACPRIVMDDYQNYESTLLTPEELRMYLSNDFEYKFDEILENNFYLEHHHHHH | not soluble |
| MSLRMMNKRILKGTLTAIAALMSAHAFAGQEVTVYTAFETDLLAKYKSAFEKENPDIEIKWVRDSTGIMTAKLLAEKDNPRAEVVWGLAGSSMALLKDQGVLKPYTPKGANELRANLNDPQAQQAWYGNDAFFNAVCFNEAVAKQLNLPKPQSWEDLTNPVYKGHIAMPNPASSGTGYMQVSAWLQNMGEDKAWDYMQRLDQNIAHYTHSGSKPCVQAGMGEVAIGISMATRGAKLKTQGAPLDVIVPNGIGWESEAVGLVKESDAAKRVVDWSVSKAANELYIESYPIVGHQDVSKQVPNYPNVEKVMAKMDFTQMGVDRARVLQTWSEKFDAKSEPKEGHHHHHH | soluble |
| MHVTRNVGKSQKLHHVSLKQVLSYLEPHEQEDTKPVTSTKNKGFLLFNSHQNTLNTHMHGAMNSPCIDFVMFSRGQHDEDNMSRRPPWKRERSMSTQHHHLNLSPNEDEELANCLVLLSNSGDAHGGDQHKQHGHGKGKTVKKQKTAQVFQCKACKKVFTSHQALGGHRASHKKVKGCFASQDKEEEEEEEYKEDDDDNDEDEDEEEDEEDKSTAHIARKRSNAHECTICHRVFSSGQALGGHKRCHWLTPSNYLRMTSLHDHHHSVGRPQPLDQPSLDLNLACQEYSVDPTAMSVGMIERDGGGNNHNATSSSWLKLASGDWS | not soluble |
| MQKETWRFIDSGNASPAFNMALDEALLYWHSEKKIPPVIRFYGWNPATLSVGYFQNIKKEINFEAVHKYNLGFVRRPTGGRGVLHDQELTYSVIVSEEHPEMPATVTEAYRVISEGILQGFRNLGLDAYFAIPRTEKEKESLKNPRSSVCFDAPSWYELVVEGRKVAGSAQTRQKGVILQHGSILLDLDEDKLFDLFLYPSERVRERMQRNFKNKAVAINELIEKRVTMDEARKAFKEGFETGLNIHLEPYELSQEELDFVHHLAETKYASDEWNYKRMAGDPLEHHHHHH | not soluble |
| MAHHHHHHMPSLNNNTIREDVIFKRRVKDVLLRHGGTGGLVKVLIDFNAREAVAARQQRQTTSTDSGSSRTDVGLSHAQLLLFLQDYGVELTPFEAAYLCRAFDDHGSGFISGETFTRHLTGLNERRLRAVKKAWQSLERRNGASGKVSRELLLSTFAAVAAERAHAAAGDPGNPADGAAHDAIATTSFSSPVGGALQSTFGGGHGMHEHLKEAYMTSMMGRGSGFMAKPNAAAGGADGESGEAADRVSYAEYLAFYAGVSPQFATDEAFVTHVLQSWAADDAARPALDETAREWGPDGDPLALDGPRYVKEALNLELGISSKSYNYSHMQREHPYVEPLPPLNRPDIMATTMQRTYVPFDKAAQMLADPLVTRRGQSK | not soluble |
| MTYWICITNRENWEVIKRHNVWGVPKKHKNTLSRVKPGDKLVIYVRQEKDKEGNLLEPKIVGIYEVTSEPYVDFSRIFKPHRGGKETYPYRVKIKPIKIGEINFKPLINDLKFIKNKKRWSMHFFGKAMRELPEEDYKLIEKLLL | soluble |
| GSGEQHFAEGHEQAFTGKESAAMKDVVSGHATHEAGKSTTAQPTETRSTSESSHSLRDSIMAQVRDAVTTREPNGNGRISIRLNPVELGELTINVRVADQQVKVDVVAANGQVRDILLNNLDNLKENFSRQNLTMTGFDVSTGT | not soluble |
| GPGSMSAPTPRTGIIAGFNKGHVTTRRPRQPSPNDRFAVPHKHLRAVKAIIADLVGLSPLEKRVQEFLRVGKEKRALKYCKKRLGDFTAAKKKRSKMEEALRHATKKHH | soluble |
| MSDPAGNRPKTEKELKKEAEKAAKLAKFEEKQKKLAEKKAAASDKPVKEAKAKKEQTVEAAEPVDQTPTGQRKKIDGEIPAAYFPGYVESGWYSWWEKEGFFKPEYIDKLNPGSNPADSFTVCIPPPNVTGNLHVGHALATTVEDTITRFNRMHGKRTLFNPGCDHAGIATQVVVEKRLKRERGLTRHDLGRDRFNQEVWHWKNEKGDVIYDQFRKLGASVDWDRAVFTMDPKMCRAVTEAFIRMHESGTIYRSNRLVNWSCALRSAISDIEVDKKELTGSTLIAVPGYDKKIEFGVLNSFAYKIQGSDEEIVVSTTRIETMLGDSGVAVHPDDQRYKHLVGKQCIHPFIPTRNLPIFADSFVEMEFGTGAVKITPAHDHNDYEVGIRQNLPFHNCITDDGLISQGCGEFSGMKRFDARTAVIEALKEKGLYRGKEDNPMVVPTCSRSKDVIEPILKPQWYVKCAHMAEKAVAAVANGDLQIIPEFHKATWNRWLESSRDWCISRQLWWGHRIPAYYISFADGREQPLPEENYWVSARTEQEALAKAAQKFQVPEAEILLKWDEDVLDTWFSSGMWPFAVFGWPDATKDMDLFFPGAVLETGHDILFFWVARMVFMAQELTGKLPFKEILLHAMIRDAHGRKMSKSLGNVIDPLDVIRGISLNDLQAQLLGGNLDEKEIAVAKEGQARDYPDGIPECGVDALRFALLSYTSQGRDINLDVLRVHGYRKFCNKLWQVVRFALARISDKPEQKPTFEINLKSATPTDLWILSRLAKAVKETNEALKAYNFTQATTVTYNFWLYDFCDVYVETIKPVLYGDNTTLRQVAISVLHKCIDTGLRLISPLMPFISEELWQRMPRLDDSDYTSPSIIVAQYPLTQKYEKYQNEKLEAAFEFAQELIGKVRSLRADYDLKKTKITMQILSETPEDESMLNDISAVITTLTFSEKVSILNKCESDKIEKGSAHIACGGRCQVYINLTGIIDVPKEIEKLGAKLQKNQISVKKIGDIQSSADYEQKVPVDIRALDQEKKATLEKEIENITAAIAQLKALN | not soluble |
| MIARLAIAALLVSSSLACLPGLGGLGGGCGGAAASPCAAPPMPPPVSCGGGCGAAPYPAGPMAAPYFAPAAIAPPPPPQGAVIGVGAQPAVYSAPLPAGNAYVGQGK | not soluble |
| MFLTAVRRSSNVLKTFKPLYDRVLVERVAAETKTKGGIMLPEKSQGKVLEATVVSAGAGLRNEKGELVALTVKPGDRVLLPEYGGTKVVVEDKEYSIFRESDLLGVFH | not soluble |
| MSLYEITQYRLPHLSESAEALCHADKRPVFVGDSAAKPGLQLQQDETRWHSARQHRWSTPLAHQLQRSVQRLLLADNCEGKLTVWVDDFYGSNDSRAVVAGHWEYKSQDSQTVLKGTFTESTPLKSDGYPALVNALDEAWLNVMDTISLGVGQKLAREGHHHHHH | soluble |
| PAVLELEGKKWRVENQENVSNLVIEDTELKQVAYIYKCVNTTLQIKGKINSITVDNCKKLGLVFDDVVGIVEIINSKDVKVQVMGKVPTISINKTDGCHAYLSKNSLDCEIVSAKSSEMNVLIPTEGGDFNEFPVPEQFKTLWNGQKLVTTVTEIAG | soluble |
| MPKEILMPELAESVVEGEILKWLVEEGDYLKKDQPFVEVMTDKVTVELPSPYEGVLLKKLAKEGEVVKVHAPIALIAEPGEAVEGVKEAPPVQAVEERSIVEPGLPAKEEKEDLSLFKPDPTQVAVKNPFLSGEKPQEGARPGRVLAVPAARKLARELGIPIEEVPGSGPLGRVRVEDVRAYAERRKAPPERPEEGPQVLPAGFPPPPKYAPPKGYEHLEERVPLRGIRRTIAQGLWQSHLYTVRTLNVDEADLTELVRLRERLKPQAEAQGVKLTYLPFIVKAVVRALKKFPMLNTSLDEERQEIVYKRYYHIGLAVATERGLIVPVVRDADRKSVLELAQEIAELSQKAREGRLAPEEVTGSTFTITNIGSVGATLSFPIIHLPDAAILGVHSIRKRPWVMPDGSIRPRDIMFLSLSFDHRLVDGAEAAMFTREVIRLLENPDLLLLEM | soluble |
| GSHEATVEYLADLVKEKKHLTLFPHMFSNVERLLDDEIGRVRVALFQTEFPRVELPEPAG | soluble |
| SLTRATKGFLSKSLPKASEATPGSQSSDYIPLVSLQLASGAFLLNEAFCTTIQIPMEKLKWTSPFSCLRMSLVTRRQDLKTQSPQDCTSLSSSPPSCDGISLKSEESSDQESNAMLEHMGKLWATVVALAWLEHSSANYIIEWELVAAKASSWVEKQKVPEGRTLSTLKNTARQLFVLLRHWDEKLEFNMLCYNPNYV | soluble |
| KDADVDITLIDRTNHHLFQPLLYQVATGILSSGEIAPQTRQVLAQQNNVHVLKAEVTDIDTESKTVVADLDDYSKTIEYDSLIVAAGAGQSYFGNDHFAEFAPGMKTIDDALELRARIIGAFERAEMCEDPKERERLLTFVIVGAGPTGVELAGQLAEMAHRTLSGEYTQFTPSNAKIILLDGAPQVLPPFGKR | not soluble |
| MAGFSVNSPKARKSDQELVAGVLEDKKQFAAIVQRYEEPLFRYIVRQGARDRELARDILQEVFIKVYLHLNDYDASLPFSSWIYRIAHNETITHFRKEKNRPLVLDKGDDDEFFGKIVDDLELSRADGQYDVSDIQTVLERLEPRYRDILVLKFFEDKSYEEISDILQMPQGTVATLINRAKKKVKASLEKN | not soluble |
| KPMKILLANPRGFCAGVDRAISIVERALELYQPPIYVRHEVVHNRFVVEGLKQRGARFVEELNEVPDDNIVIFSAHGVSQAVRQEAKERSLTVFDATCPLVTKVHMEVARASRKHMEVVLIGHAGHPEVEGTMGQYASDTGGMYLVEKPEDVVSLQAKVKDPSNLHYVSQTTLSVDETADVIDELRRVFPKIQGPRKDDICYATQNRQDAVRILAEQVDVMVVVGSKNSSNSTRLKELAEKLGTPGYLIDCPQDIDPEWFVDAQLIGVTAGASAPEELVNQILDRIKELGAT | not soluble |
